Test results as given in patent publication US9364516B2, “Treatment of fibrosis-related disorders using fibronectin binding proteins and polypeptides” (priority 2010, dated 2016).

Assays:
Mouse carotid arteries = experiment: qRT-PCR of fibronectin and collagen I in carotid arteries after ligation; assay type: in vivo; details: III-11C set equal to 1, mean ± s.e.m., 3 arteries
Protocol: mRNA was isolated from RASMs 24 hours after incubation with 500 nM pUR4 or III-11C control peptides using RNAzol as per the manufacturer's instructions (Invitrogen). cDNA was prepared using a Superscript First Strand cDNA kit as per the manufacturer's instructions (Invitrogen). Mouse carotid arteries were harvested and frozen in liquid nitrogen. RNA was isolated using Trizol and purified using a QIAgen RNeasy Micro Kit. RNA integrity was examined with an Agilent 2100 Bioanalyser using RNA6000 NanoAssay (Agilent Technology). Whole transcriptome amplification was performed using Qiagen's QuantiTect Whole Transcriptome Amplification Kit. Quantitative RT-PCR analyses were performed using ABI Prism 7900HT sequence detection system (Applied Biosystems). The qRT-PCR primers for 3 mouse genes were obtained from ABI: GADPH (4352932E), fibronectin (Mm01256744_m1), and collagen Ia1 (Mm00801666_g1). TaqMan probe chemistry was used according to the manufacturer's instructions. qRT-PCR reactions were run in triplicate for each sample. The data was normalized to the levels of GAPDH in each sample, and the results were averaged.
Blood flow in the left carotid artery of 10-week-old FVB/NJ (FVB) mice was reduced by ligating the external and internal carotid arterial branches as described (Korshunov et al., “Flow-Induced Vascular Remodeling in the Mouse: A Model for Carotid Intima-Media Thickening,” Arterioscler. Thromb. Vasc. Biol. 23:2185-2191 (2003), which is hereby incorporated by reference in its entirety). Mice were anesthetized with an intraperitoneal injection of ketamine (80 mg/kg) and xylazine (5 mg/kg) as described in the above-cited referenced. The left common carotid artery was dissected free of the surrounding connective tissue and 50 μL of F-127 pluronic gel (BASF) containing 20 μmol/L pUR4 or III-11C was applied around the carotid artery. Animals were separated into 5 groups containing 5 to 10 animals each: (1) sham-operated, in which the branches of the left carotid artery were exposed and dissected out, but not ligated; (2) ligation; (3) ligation with pluronic gel; (4) ligation with pluronic gel containing III-11C; (5) ligation with pluronic gel containing pUR4.

human saphenous veins = experiment: Ex vivo cultured human saphenous veins, intimal thickening; details: 15 μM, 14 days culture in 10% FBS/M199
Protocol: Saphenous veins were cut into 0.5 cm segments, and processed immediately (●) or cultured in 10% FBS/M199 containing 15 μM control III-11c peptide (▪) or pUR4 (▴) at 37° C. for 14 days. Veins were fixed, paraffin embedded, sectioned, and stained. Morphometric analysis was performed on six randomly chosen sections using Image-Pro Plus software. The intima/media ratio was determined by dividing intima area by media area. Paired student t-test was used to analyze the data. Data are expressed as mean±S.E.M. *p<0.05.
Human saphenous veins cultured in serum containing media develop intimal hyperplasia after 14 days in culture (Soyombo et al., “Intimal Proliferation in an Organ Culture of Human Saphenous Vein,” Am J Pathol. 137(6):1401-1410 (1990); Angelini et al., “Smooth Muscle Cell Proliferation in Response to Injury in an Organ Culture of Human Saphenous Vein,” Eur J Vasc Surg. 5(1):5-12 (1991); and Slomp et al., “Nature and Origin of the Neointima in Whole Vessel Wall Organ Culture of the Human Saphenous Vein,” Virchows Arch. 428(1):59-67 (1996), which are hereby incorporated by reference in their entirety). This system thus provides an ex vivo model system for studying mechanisms that lead to intimal hyperplasia that has distinct advantages over in vitro culture systems. […]

B1: pUR4: 49-mer peptide derived from the bacterial F1 adhesin, His tagged, SEQ ID NO:1; class I fibronectin polymerization inhibitor (peptide)
chain: MRGSHHHHHHGSKDQSPLAGESGETEYITEVYGNQQNPVDIDKKLPNETGFSGNMVETEDTKLN
modifications: His tag; Bacterial adhesin derived peptide pUR4
Q: Which results are given for B1?
A: Col Ia1 mRNA, relative level, Day 4 (Mouse carotid arteries; 4 days post surgery): 0.60 ± 0.30; Fibronectin mRNA, relative level, Day 4 (Mouse carotid arteries; 4 days post surgery): 0.70 ± 0.23; Col Ia1 mRNA, relative level, Day 7 (Mouse carotid arteries; 7 days post surgery): 0.58 ± 0.36; Fibronectin mRNA, relative level, Day 7 (Mouse carotid arteries; 7 days post surgery): 0.41 ± 0.23; intima/media ratio (human saphenous veins): decreases
